We go through five molecules from patent publication US20170158755A1 (PROTHENA BIOSCIENCES, published 2017).

B5: human LAMA4 LG4-5 modules displayed on 293 cells (ligand)
chain: RNSHCHLSNSPRAIEHAYQYGGTANSRQEFEHLKGDFGAKSQFSIRLRTRSSHGMIFYVSDQEENDFMTLFLAHGRLVYMFNVGHKKLKIRSQEKYNDGLWHDVIFIRERSSGRLVIDGLRVLEESLPPTEATWKIKGPIYLGGVAPGKAVKNVQINSIYSFSGCLSNLQLNGASITSASQTFSVTPCFEGPMETGTYFSTEGGYVVLDESFNIGLKFEIAFEVRPRSSSGTLVHGHSVNGEYLNVHMKNGQVIVKVNNGIRDFSTSVTPKQSLCDGRWHRITVIRDSNVVQLDVDSEVNHVVGPLNPKPIDHREPVFVGGVPESLLTPRLAPSKPFTGCIRHFVIDGHPVSFSKAALVSGAVSINSCP
notes: pDisplay construct on 293 cells; vector tags and anchor not written here

For test [1], the target named is T1, human LAMA4 G domain (LG1-5) displayed on 293 cells (human, UniProt Q16363 830-1821).
T1 construct: the vector's tags and membrane anchor are not written here; also called LAMA4-displaying human 293 cells; full length
T1 sequence: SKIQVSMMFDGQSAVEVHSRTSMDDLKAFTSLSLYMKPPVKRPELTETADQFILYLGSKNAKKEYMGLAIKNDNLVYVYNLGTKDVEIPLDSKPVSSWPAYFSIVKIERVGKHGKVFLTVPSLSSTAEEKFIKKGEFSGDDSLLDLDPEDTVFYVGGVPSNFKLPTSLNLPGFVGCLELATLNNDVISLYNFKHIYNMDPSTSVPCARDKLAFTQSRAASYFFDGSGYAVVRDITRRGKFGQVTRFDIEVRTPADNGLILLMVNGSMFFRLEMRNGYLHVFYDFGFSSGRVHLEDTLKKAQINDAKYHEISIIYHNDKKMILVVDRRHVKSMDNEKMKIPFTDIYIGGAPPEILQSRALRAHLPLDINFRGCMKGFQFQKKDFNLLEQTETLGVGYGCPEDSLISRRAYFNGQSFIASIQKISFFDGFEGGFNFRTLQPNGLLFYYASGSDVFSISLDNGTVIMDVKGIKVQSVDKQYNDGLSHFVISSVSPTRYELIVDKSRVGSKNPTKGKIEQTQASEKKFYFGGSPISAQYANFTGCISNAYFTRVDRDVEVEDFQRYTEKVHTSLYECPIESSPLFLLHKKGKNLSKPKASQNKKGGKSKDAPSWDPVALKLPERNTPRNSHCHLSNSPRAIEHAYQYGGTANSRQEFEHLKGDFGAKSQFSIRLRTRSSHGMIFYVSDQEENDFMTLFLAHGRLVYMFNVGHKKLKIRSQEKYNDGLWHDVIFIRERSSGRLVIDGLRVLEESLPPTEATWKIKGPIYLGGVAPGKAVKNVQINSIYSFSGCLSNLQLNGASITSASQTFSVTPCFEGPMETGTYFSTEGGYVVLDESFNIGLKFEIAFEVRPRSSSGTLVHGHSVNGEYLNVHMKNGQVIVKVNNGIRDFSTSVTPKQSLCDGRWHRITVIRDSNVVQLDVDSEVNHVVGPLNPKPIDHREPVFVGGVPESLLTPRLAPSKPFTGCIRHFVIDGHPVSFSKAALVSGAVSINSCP
Kind of test: flow cytometry on 293 cells displaying LAMA4 G-domain variants, anti-human-650 secondary antibody; MFI. As to the method: (§1) The 19C12 variants chimeric 19C12, H1+chiL, and H2+chiL, and buffer alone were tested for their ability to block the binding of LAMA4 to its ligand MCAM (as shown in FIG. 11) and to bind LAMA4-displaying cells (full length, LG1-3, LG4-5, or untransfected control) (as shown in FIG. 12). […] To test LAMA4 binding capacity, serially diluted antibodies were pre-incubated with LAMA4-displaying human 293 cells, followed by anti-human-650 secondary antibody incubation. Fluorescent signal was assessed via flow cytometric analyses and plotted as mean fluorescence intensity (MFI).
On the technique in general: Flow cytometry measures light scatter and fluorescence of single cells or particles in a stream.

Test [2] concerns the target B5. The test is described as above. Here is the method: as §1
Test [3] concerns the target T2, human LAMA4 LG1-3 modules displayed on 293 cells (human, UniProt Q16363 830-1430).
T2 construct: pDisplay construct on 293 cells; vector tags and anchor not written here
T2 sequence: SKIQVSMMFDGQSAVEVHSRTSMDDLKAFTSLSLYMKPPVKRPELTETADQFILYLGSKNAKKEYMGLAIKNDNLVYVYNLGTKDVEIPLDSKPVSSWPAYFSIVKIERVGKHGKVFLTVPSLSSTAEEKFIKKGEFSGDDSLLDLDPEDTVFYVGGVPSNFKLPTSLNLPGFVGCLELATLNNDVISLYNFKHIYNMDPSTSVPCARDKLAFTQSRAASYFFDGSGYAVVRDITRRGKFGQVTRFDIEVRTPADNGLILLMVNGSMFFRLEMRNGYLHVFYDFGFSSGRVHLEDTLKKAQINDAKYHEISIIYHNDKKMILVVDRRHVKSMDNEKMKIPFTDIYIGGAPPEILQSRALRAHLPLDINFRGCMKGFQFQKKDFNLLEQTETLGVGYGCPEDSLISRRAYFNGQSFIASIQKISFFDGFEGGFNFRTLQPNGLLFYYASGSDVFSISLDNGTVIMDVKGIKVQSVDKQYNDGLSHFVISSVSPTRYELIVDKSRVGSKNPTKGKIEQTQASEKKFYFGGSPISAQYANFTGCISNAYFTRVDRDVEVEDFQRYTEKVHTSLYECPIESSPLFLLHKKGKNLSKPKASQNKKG
The test is described as above. Here is the method: as §1

In test [4] the target is T3, recombinant laminin 411 (human, UniProt P07942 22-1786; P11047 34-1609, limits assumed).
T3 construct: also called LAMA4 in complex with its gamma1 and beta1 chains
Kind of test: flow cytometric blocking assay; antibody pre-incubated with 650-labeled laminin 411; blocked partner: human MCAM on CHO cells; MFI. Here is the method: as §1
Following two washes with FACS buffer (1% FBS in PBS), cells were resuspended with 650-conjugated anti-pan-laminin antibody (1:1000; Novus Biologicals) and incubated for 20 min at 4° C., and washed again. Cells were analyzed for pan-laminin reactivity by flow cytometry using standard procedures.

Test [5] has as its target T1, human LAMA4 G domain (LG1-5) displayed …. Kind of test: flow cytometry on LAMA4-displaying 293 cells, anti-human-650 secondary antibody; MFI (binding experiment by paragraph 395 and by the plot; the legend paragraph 38 calls it blocking). Here is the method: (§2) Position L49 of the 19C12 variable light chain was substituted with other amino acids, such as I, T, A, M, Q, or E (see Table 6) because they may confer improved stability relative to substitution to a cysteine. The 19C12 cysteine replacement variants were tested for their ability to bind LAMA4-displaying cells (FIG. 13) and to block the binding of LAMA4 to its ligand MCAM (FIG. 14). To test LAMA4 binding capacity, serially diluted antibodies were pre-incubated with LAMA4-displaying human 293 cells, followed by anti-human-650 secondary antibody incubation. […] Fluorescent signal was assessed via flow cytometric analyses and plotted as mean fluorescence intensity (MFI). The 19C12 cysteine replacement variants retain their MCAM blocking and LAMA4 binding activity to varying degrees.

In test [6] the target is T3, recombinant laminin 411. As to the kind of experiment: flow cytometric blocking assay; antibody pre-incubated with 650-labeled laminin 411; blocked partner: human MCAM on CHO cells; MFI (blocking experiment by paragraph 395 and by the 411 / no 411 controls on the sheet; the legend paragraph 39 calls it binding). Here is the method: as §2
Test [7] has as its target T4, mouse MCAM-Fc fusion protein (mouse; human, UniProt Q8R2Y2 24-563).
T4 construct: extracellular domain; Made in house; also called mMCAM-Fc; 650-conjugated mouse MCAM-Fc; not shown: human IgG1 (Fc part of the fusion)
T4 sequence (looked up): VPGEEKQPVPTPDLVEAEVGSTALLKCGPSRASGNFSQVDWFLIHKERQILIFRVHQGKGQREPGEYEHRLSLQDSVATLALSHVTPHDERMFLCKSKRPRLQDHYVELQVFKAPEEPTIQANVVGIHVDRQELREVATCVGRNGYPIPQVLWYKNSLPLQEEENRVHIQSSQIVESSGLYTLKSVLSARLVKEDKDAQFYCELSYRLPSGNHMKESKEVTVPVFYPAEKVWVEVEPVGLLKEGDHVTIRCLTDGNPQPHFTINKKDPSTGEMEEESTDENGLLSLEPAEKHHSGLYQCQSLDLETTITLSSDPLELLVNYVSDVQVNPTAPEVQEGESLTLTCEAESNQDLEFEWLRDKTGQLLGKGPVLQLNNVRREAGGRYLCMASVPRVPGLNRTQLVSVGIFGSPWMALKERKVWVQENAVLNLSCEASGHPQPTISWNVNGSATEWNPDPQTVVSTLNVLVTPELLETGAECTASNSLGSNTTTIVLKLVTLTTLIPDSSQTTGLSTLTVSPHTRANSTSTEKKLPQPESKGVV
Kind of test: flow cytometry on 293 cells displaying LAMA4 G-domain variants; % binding. An excerpt: LGde1 has a full-length G domain (i.e., LG1-5) with LG1 deleted, LGde2 has a full-length G domain with LG2 deleted, and LGde3 has a full-length G domain with LG3 deleted. Recombinant MCAM-Fc protein was able to specifically bind 293 cells expressing LAMA4 variants LG1-5, LG1-3, and LGde 1 (LG23), but not 293 cells expressing LAMA 4 variants LG4-5, LGde2 (LG13), or LGde3 (LG12).

T3 sequence (chain, as listed by the source limits assumed, chain 1 of 3): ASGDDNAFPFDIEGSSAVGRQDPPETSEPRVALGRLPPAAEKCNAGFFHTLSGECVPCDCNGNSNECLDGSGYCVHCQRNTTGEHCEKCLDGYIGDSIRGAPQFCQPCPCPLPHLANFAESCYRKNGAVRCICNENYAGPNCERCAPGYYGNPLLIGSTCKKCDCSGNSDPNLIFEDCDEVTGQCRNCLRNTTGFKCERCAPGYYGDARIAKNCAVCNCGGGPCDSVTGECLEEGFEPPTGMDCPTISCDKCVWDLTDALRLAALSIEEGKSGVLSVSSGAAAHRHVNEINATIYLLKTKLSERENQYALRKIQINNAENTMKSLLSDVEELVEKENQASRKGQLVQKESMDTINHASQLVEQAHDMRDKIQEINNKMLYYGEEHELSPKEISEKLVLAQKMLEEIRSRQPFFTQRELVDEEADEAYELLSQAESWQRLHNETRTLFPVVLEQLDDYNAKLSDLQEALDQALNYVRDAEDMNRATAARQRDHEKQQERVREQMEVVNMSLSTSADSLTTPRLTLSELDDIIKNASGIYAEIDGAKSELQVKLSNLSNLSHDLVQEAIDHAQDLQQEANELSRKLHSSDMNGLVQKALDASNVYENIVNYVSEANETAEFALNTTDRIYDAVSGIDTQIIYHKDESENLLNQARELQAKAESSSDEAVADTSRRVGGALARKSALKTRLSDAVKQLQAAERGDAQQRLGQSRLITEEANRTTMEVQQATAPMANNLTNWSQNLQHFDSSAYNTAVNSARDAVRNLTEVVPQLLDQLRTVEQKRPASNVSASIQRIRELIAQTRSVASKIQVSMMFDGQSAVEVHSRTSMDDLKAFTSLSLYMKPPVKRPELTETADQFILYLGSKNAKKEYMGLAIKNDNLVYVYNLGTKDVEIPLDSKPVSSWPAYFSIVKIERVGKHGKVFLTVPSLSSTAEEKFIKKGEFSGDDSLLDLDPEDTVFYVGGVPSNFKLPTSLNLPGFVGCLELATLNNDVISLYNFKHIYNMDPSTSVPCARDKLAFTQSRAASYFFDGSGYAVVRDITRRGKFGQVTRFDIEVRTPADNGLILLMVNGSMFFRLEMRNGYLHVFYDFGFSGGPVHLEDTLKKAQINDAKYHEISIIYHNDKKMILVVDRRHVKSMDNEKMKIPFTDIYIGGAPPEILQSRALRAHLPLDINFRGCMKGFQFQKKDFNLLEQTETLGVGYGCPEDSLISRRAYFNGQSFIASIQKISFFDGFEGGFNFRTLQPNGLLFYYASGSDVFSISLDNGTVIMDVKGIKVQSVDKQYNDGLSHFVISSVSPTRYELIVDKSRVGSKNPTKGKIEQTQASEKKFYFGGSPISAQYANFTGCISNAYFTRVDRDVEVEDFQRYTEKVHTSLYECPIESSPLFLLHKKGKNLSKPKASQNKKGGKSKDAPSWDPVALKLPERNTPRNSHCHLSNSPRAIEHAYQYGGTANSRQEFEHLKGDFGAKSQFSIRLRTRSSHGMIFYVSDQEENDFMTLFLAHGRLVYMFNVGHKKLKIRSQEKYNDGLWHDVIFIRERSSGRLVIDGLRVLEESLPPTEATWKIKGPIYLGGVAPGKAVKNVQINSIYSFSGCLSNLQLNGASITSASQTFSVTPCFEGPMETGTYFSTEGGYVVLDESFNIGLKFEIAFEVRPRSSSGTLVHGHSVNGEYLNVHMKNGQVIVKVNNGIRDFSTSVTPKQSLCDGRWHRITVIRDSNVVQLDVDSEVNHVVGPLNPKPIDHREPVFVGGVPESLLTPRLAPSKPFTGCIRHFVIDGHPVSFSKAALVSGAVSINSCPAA
T3 sequence (P07942 22-1786 limits assumed, chain 2 of 3): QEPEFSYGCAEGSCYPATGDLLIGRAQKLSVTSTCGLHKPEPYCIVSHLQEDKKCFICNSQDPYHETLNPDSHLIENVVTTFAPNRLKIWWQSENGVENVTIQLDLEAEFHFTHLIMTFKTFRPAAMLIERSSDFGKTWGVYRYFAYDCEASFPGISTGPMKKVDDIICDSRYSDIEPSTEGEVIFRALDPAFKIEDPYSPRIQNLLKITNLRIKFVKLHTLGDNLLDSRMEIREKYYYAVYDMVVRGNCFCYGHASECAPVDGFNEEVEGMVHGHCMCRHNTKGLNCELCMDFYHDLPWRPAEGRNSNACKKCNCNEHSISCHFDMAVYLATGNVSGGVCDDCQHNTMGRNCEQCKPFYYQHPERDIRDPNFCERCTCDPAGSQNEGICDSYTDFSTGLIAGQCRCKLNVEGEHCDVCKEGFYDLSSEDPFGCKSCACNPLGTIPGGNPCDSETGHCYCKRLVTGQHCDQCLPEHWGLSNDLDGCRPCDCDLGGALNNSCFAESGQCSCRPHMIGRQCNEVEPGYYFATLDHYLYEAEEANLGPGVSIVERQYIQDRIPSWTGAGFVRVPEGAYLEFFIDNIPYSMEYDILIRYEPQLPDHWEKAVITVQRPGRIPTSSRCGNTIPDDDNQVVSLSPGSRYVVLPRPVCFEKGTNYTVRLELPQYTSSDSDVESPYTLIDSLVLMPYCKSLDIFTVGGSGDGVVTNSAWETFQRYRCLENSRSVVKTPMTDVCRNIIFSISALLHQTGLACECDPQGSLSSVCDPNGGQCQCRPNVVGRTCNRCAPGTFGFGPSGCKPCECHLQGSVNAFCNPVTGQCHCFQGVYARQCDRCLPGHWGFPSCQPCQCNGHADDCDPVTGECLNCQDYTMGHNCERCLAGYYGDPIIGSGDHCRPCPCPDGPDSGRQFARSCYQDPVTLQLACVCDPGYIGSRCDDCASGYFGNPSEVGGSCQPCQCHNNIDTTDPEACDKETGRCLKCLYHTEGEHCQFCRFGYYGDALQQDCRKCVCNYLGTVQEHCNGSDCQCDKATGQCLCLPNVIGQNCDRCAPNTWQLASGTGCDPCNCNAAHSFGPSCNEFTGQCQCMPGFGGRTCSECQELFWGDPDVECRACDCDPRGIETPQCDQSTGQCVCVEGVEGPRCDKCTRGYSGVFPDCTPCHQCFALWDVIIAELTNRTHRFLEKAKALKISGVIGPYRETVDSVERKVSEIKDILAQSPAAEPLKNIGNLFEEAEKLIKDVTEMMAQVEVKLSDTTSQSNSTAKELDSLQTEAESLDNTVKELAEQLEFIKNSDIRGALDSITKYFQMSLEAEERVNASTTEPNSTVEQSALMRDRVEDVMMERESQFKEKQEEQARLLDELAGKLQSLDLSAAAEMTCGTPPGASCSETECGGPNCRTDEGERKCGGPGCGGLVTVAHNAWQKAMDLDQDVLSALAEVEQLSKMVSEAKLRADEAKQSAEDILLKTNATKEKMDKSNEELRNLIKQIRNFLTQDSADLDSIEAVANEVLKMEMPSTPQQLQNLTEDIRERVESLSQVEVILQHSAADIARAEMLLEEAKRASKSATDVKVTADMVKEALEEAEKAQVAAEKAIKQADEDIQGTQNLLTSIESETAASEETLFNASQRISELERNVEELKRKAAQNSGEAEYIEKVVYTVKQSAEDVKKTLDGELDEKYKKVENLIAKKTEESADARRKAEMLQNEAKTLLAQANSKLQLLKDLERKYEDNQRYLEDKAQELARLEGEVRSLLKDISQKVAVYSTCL
T3 sequence (P11047 34-1609 limits assumed, chain 3 of 3): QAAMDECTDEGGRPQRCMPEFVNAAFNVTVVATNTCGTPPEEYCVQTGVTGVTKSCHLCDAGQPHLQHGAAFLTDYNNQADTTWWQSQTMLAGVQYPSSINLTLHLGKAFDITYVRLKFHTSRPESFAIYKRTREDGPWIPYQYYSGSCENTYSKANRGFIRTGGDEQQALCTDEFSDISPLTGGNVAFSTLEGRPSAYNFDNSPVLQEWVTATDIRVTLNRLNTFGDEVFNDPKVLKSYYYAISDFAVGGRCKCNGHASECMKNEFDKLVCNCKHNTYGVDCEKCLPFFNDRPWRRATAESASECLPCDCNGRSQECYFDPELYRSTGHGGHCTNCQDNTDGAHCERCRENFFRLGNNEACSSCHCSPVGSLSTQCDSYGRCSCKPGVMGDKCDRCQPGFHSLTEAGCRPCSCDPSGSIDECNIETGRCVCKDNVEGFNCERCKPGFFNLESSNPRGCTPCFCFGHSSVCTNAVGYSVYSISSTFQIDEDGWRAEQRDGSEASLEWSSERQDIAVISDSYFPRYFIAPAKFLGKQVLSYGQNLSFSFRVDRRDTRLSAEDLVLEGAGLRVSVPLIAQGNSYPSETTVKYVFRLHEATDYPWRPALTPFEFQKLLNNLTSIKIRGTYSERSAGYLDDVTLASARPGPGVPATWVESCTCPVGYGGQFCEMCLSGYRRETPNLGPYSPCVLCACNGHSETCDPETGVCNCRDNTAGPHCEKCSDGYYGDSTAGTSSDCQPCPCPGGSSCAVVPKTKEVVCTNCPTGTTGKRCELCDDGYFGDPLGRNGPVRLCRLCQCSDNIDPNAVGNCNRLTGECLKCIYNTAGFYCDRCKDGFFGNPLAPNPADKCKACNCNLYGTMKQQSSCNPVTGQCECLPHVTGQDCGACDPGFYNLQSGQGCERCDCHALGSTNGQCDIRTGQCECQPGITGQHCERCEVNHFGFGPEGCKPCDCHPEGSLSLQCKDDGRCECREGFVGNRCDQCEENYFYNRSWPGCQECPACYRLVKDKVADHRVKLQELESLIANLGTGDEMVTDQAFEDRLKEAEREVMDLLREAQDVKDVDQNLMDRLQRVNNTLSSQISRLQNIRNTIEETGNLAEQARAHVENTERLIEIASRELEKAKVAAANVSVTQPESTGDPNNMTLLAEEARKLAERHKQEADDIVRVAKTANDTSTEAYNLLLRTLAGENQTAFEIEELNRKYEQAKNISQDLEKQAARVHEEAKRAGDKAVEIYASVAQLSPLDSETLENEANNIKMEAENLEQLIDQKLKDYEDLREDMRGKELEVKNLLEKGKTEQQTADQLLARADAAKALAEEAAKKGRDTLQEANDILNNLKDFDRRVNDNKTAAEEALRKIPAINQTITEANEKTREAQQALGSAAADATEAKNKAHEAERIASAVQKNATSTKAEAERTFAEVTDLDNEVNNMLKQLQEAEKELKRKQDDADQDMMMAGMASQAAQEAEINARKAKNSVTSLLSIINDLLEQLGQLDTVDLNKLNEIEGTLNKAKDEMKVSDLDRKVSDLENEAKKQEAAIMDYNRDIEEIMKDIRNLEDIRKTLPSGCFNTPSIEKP

B1: 19C12 variant H1+ChiL (antibody, V domains shown)
VH: QVQLQQSGAELVKPGASVKISCKASGYAFSTYWMNWVKQAPGEGLEWIGQIYPGDGDTNYNGKFKGRVTLTADKSTSTAYMELSSLRSEDTAVYFCARSDGYYDYWGQGTTVTVSS
VL: NIVLTQSPASLAVSLGQRATISCRASESVDSYGTSFMHWYQQKPGQPPKLLICLASSLESGVPARFSGSGSRTDFTLTIDPVEADDAATYYCQQNNEDPPTFGAGTKLELKR
notes: Humanized heavy chain version 1 (Hu19C12VHv1) paired with the chimeric light chain; Human constant regions not specified
Regarding B1, the binding result in test [1] is on record as “binds”; in test [2], “no binding (tested: 5 ug/ml)”; in test [3], “binds”; with recombinant laminin 411 [4], “binds”.

B2: H2L5 (antibody, V domains shown)
VH: QVQLQQSGAELVKPGASVKVSCKASGYAFSTYWMNWVRQAPGQGLEWIGQIYPGDGDTNYNGKFKGRVTITADKSTSTAYMELSSLRSEDTAVYFCARSDGYYDYWGQGTTVTVSS
VL: DIVLTQSPASLAVSLGERATISCRASESVDSYGTSFMHWYQQKPGQPPKLLISLASSLESGVPARFSGSGSGTDFTLTISPLQAEDVATYYCQQNNEDPPTFGQGTKLEIK
notes: also called VHv2/VLv5; humanized 19C12 antibody H2L5; copies: 2 + 2
In the case of B2, the binding result in test [5] was “binds”.

B3: 19C12 variant H2+ChiL (antibody, V domains shown)
VH: QVQLQQSGAELVKPGASVKVSCKASGYAFSTYWMNWVRQAPGQGLEWIGQIYPGDGDTNYNGKFKGRVTITADKSTSTAYMELSSLRSEDTAVYFCARSDGYYDYWGQGTTVTVSS
VL: NIVLTQSPASLAVSLGQRATISCRASESVDSYGTSFMHWYQQKPGQPPKLLICLASSLESGVPARFSGSGSRTDFTLTIDPVEADDAATYYCQQNNEDPPTFGAGTKLELKR
notes: Humanized heavy chain version 2 (Hu19C12VHv2) paired with the chimeric light chain; Human constant regions not specified
For B3, the binding result is reported as “binds” in test [1], “no binding (tested: 5 ug/ml)” in test [2], “binds” in test [3] and “binds” with recombinant laminin 411 [4].

B4: H3L3 (antibody, V domains shown)
VH: EVQLQQSGAELVKPGASVKVSCKASGYAFSTYWMNWVRQAPGQGLEWIGQIYPGDGDTNYNGKFKGRVTITADKSTSTAYMELSSLRSEDTAVYFCARSDGYYDYWGQGTTVTVSS
VL: NIVLTQSPASLAVSLGERATISCRASESVDSYGTSFMHWYQQKPGQPPKLLICLASSLESGVPARFSGSGSRTDFTLTIDPVEAEDAATYYCQQNNEDPPTFGAGTKLEIK
notes: also called VHv3/VLv3; humanized 19C12 antibody H3L3; copies: 2 + 2
As for B4, the binding result (with recombinant laminin 411 [6]; in test [5]) was “binds” in each case.
With B5, the binding result in test [7] is “no binding”.
